Paper PMC8616923, “Initiation of cytosolic plant purine nucleotide catabolism involves a monospecific xanthosine monophosphate phosphatase” (Nature Communications, 2021)

What was measured:
[1] = molecular target: T1, XMPP (C-terminal His-tagged full-length XMPP) (Arabidopsis thaliana, UniProt F4ISS8); assay: EnzChek phosphate assay (MESG / purine nucleoside phosphorylase), initial rates; type: biochemical; details: 30 °C, pH 7.5 (50 mM Tris), 1.25 mM MgCl2
T1 construct: gene At2g32150; full-length (13 residues beyond Ser250), C-terminal His tag, expressed in E. coli, HisTrap purified; monomer
T1 sequence (F4ISS8 1-263): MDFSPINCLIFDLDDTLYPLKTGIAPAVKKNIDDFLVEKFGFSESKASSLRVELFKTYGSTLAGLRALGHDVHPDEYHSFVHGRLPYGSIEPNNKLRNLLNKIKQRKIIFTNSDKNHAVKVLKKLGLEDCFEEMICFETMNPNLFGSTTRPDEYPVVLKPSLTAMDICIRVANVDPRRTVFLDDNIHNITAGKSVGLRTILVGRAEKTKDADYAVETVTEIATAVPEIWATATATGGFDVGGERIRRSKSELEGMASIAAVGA

[2] = molecular target: T1, XMPP (C-terminal His-tagged full-length XMPP); assay: as above; type: biochemical; details: 30 °C, pH 7.5 (50 mM Tris), 1.25 mM MgCl2; remark: listed apart in the source
[3] = molecular target: T2, XMPP (XMPP-HAStrep; SDTL1) (Arabidopsis thaliana, UniProt F4ISS8); assay: inhibition of XMP hydrolysis (phosphate assay); type: biochemical; details: 10 μM XMP as substrate; 22 °C
T2 construct: gene At2g32150; monomer
T2 sequence (F4ISS8 1-263): T1 sequence (F4ISS8 1-263)

[4] = substrate: O=c1[nH]c(=O)c2ncn([C@@H]3O[C@H](COP(=O)(O)O)[C@@H](O)[C@H]3O)c2[nH]1; assay: purified protein; type: biochemical, Arabidopsis thaliana; details: 22 °C
[5] = substrate: O=c1[nH]c(=O)c2ncn([C@@H]3O[C@H](COP(=O)(O)O)[C@@H](O)[C@H]3O)c2[nH]1; assay: EnzChek phosphate assay (MESG / purine nucleoside phosphorylase), initial rates; type: biochemical, Arabidopsis thaliana; details: 30 °C, pH 7.5 (50 mM Tris), 1.25 mM MgCl2
Description: EnzChek phosphate assay (MESG / purine nucleoside phosphorylase), initial rates on XMPP (C-terminal His-tagged full-length XMPP) | enzymatic activities and kinetic constants of XMPP variants were determined

O=c1[nH]c(=O)c2ncn([C@@H]3O[C@H](COP(=O)(O)O)[C@@H](O)[C@H]3O)c2[nH]1 [XMP]
KM [1]: direct and indirect hydrogen bonds to Thr61, Lys29, and Arg51 | KM [2]: hydrophobic residues Val28, Ile31, and Phe55 that shape the xanthine-binding pocket

O=c1[nH]c(=O)c2ncn([C@@H]3O[C@H](CO)[C@@H](O)[C@H]3O)c2[nH]1 [xanthosine]
inhibition [3]: For XMPP, we confirmed an inhibition by xanthosine

B1: XMPP (XMPP-HAStrep; SDTL1) (Arabidopsis thaliana) (protein)
chain: T1 sequence (F4ISS8 1-263)
notes: monomer
Km [4]: 3.9 ± 0.2 µM | kcat [4]: 9.2 ± 0.1 s⁻¹

B2: XMPP (C-terminal His-tagged full-length XMPP) (Arabidopsis thaliana) (protein)
chain: T1 sequence (F4ISS8 1-263)
notes: full-length (13 residues beyond Ser250), C-terminal His tag, expressed in E. coli, HisTrap purified; monomer
Km [5]: 8.1(0.8) μM | kcat [5]: 16.5(0.33) s^-1
